Results published in a protein production outcome set (Wang et al. 2014).

Assay: label from the status in PepcDB records

For “MACARAWRTMSPCGGKQVHPLQECGLCSAPAGVARTHARQGADPMLPELGTFLLVLALLVALVQAVVPLAGAQRGRSSWMAVARPAAMVQLALIASAFAVLTHAFLVQDFSVRYVAENSNSLLPMMYRYSAVWGAHEGSLLLWTLVLALWTGAVAIWSRQLPAHVIARVLGVMALVSIGFLAFLLFTSNPFARLFPVPLEGGDLNPLLQDPGLIVHPPMLYCGYVGFAVPFAFAIAALLEGRMDARWLRWTRPWTNVAWSMLTVGIALGSWWAYYELGWGGWWFWDPVENASFMPWLVGTALLHSQAVTEKRGSFASWTLLLAIAAFALSLLGTFLVRSGVLTSVHSFAADPSRGLFILVFLLLVVGGSLVLYALRAPRLSLVDDPRRAFAGSSRETLLLLNNLLLTCACAMVLLGTLYPLLADALGLGKLSVGPPYFGTLFVVLMAPLVALVPFGPLTRWQREQASRPLAMLAPWAGLALAAGVLAWFAAPQGQLKAAVGVAGAAWVLLGTARFLWTRRAAKGRKFTPEMLGMVLAHLGVAVFLSGALLVEGLSLQREVALAPGQQVQIGRYALHFDGLEELRGPNYVSDRANLQVLKDDAPVGVVHAEKRRYASGGQTLTEAAIRPGPFGDLYVALGEPLGNQAWAVRVHLKPFVRWIWLGALLMALGGLVTAADRRFRRSPEIQDG”, the protein production was “failed”.

For “MKKKAALATLAMLPLGVVNAHADGDIGIVTINYLNVRNEPTAESSIAFVAKKDDKVLIKDSSNGWYKIKAESGQEGWASSKYIAKSNSDSLRTSTNKEKQVISNSLNMRNGAGTSYRVITVLKKGQKVEVISESNGWSKIKYDGRLGYVSSSYLGDVSNSTNKSKTKQVNTTSLNVRSGPNTSYGLLGKLPKGSKVEVISESNGWSKIKYNGKDAYVSSMYLSDVSQSNSDNSSQSNDKKNTDKVVNTASLNVRSGPGSTYSKLGKVYKGSKVTVLSESSGWAKINFNNKEAFVVGNYLSTSADTSNNNSNSNYDNSSNSNGNNSSSSGQVNGMSGISGAKIDYKSLSYTLESHISKQVEKAASGGNVIAPSNRKSTPSPEFSTFSAQRTSSFVNASSSDIEYYLNPKNFTNTTKGMMQFLKINSYRDGISESSLNSYLNGLSSSVFKNQGAAFINAAKKYNIDVVYLVSHAMWETAYGKSTLAQGQTLTSYKGQPLSKPVKVYNFFGIGAIDKSANVSGAEAAYSNGWTSVETTIDGSAKWISQNYVNSSKYNQNTIYKMKWNYDYTWHQYATDVNWANGISGIMENLIGLYRGGSSLVFEVPQYK”, the protein production was “failed”.

In the case of “MMIDPELRPAFLPAGKLRAAINLGNPILAGTDAAGQAVGVSVDLAREFARRLNAGIELRVFDTAGQSVDAVTREEADIGFFAIDPARGAGIAFTGPYVLIEGAYLVRDDSPLQANEDVDRAGKRVTVGKGSAYDLHLTRALQHAEIVRAASSQAVVDTFLARRLDVAAGVKQQLQADARRVGGVRLLPGRFMVIRQAMGLPKARGDAAAACLDAFVESMKGNGFVAQALARHGIQGASVAPPGRDG”, the protein production is reported as “failed”.

In the case of “VPKIVDHDERRRALADAVLALIAREGISAVTTRAVAEESGWSTGVLNHYFGSRHELLLAALRRAGDIQGDRYRTILDEEGAGPIEKLRNITASILPLDERRLAMTRVFLFFYAEGAAEETARGEIAAFLARWRGVVRESVVAAQREGTVSTDLDADAVTVALVALTDGLALQAILDPVVMKAISAEDAAARCVDAAVRRTTEEAGAVGR”, the protein production is reported as “not failed”.

With “MNDAAVWVPVPAMFYWGWLVPLIFGTIFGWRYHRDKVRLGNGIWFSLFFYSFLTMLAITILGSNIHWLIIISGALFVLLILLIGLIFTLQAFLLLWNAWIMWRHESHTLANMLTLYLGLGILVLPFLGNLLSSHVPQPVSYFLTLFPNLVIFYLGFLFYNYLTMLTIYQFNWPRLRQDYIIVLGDGWAETQSKTTFQNMQFSKQLIAQGPAKNPRTIFVTNKYGRLQI” the protein production was “failed”.

For “MNHSIPTLRTERLTLRPLAMADFPAYRDFMASPRSTGVGGPYDLPSTWGVFCHDLANWHFFGHGALMIDLGETGECIGQIGINHGPLFPEKELGWLLYEGHEGRGYAAEAAVALRDWAFETLNLPTLVSYVSPQNRKSAAVAERIGGTLDPLAPRSDPEDLVYRYHQVKTA”, the protein production was “not failed”.

With “MTALPLSAVTVVSVCYNSDRLIRDLVTAIPDETPIILVDNGHTNTFADLPPHRNVIIVKLDHNLGFGRGCNAGADVAQTPWILFLNPDARLNPGAIEGLLQAAAQYPSAIAFNPRIYNEDGSPYFKRRSWLLPRQHYMKKGWPSADAVVPVLSGAALFVSKKSFDYIGGFDPSIFMYHEDDDLSLRLSALGELRFVRNSTVVHFAGYSSGRSPEIARFKAYHMAQSKIYAGQKHHRPFAKTSTLLQGCLLLLSPHVFFSARRRAKALGFLHGALAKIWSELLNAASTSSQKKTLEHHHHHH” the protein production was “not failed”.

For “MGQKKYVELSKDIFIFSYLCGGINFTDIANLTQENIVNGRLHYIRQKTGKLIKIGIPQEAMQIIKKYTDESNGYLFPILNVKVHKTALQKQNRIHKIRGKVNDILKTLGKRLGIEANITTYVARHSFASVLKKSGVNIALISEALGHSDLATTQIYLDSFDNEQVDEAMKNLLEHHHHHH”, the protein production was “not failed”.

For “GNIEAALFGLIALYAQTKVIDSIIYGGDAGSMATIVTGNPDGIAAKVIYELDRTATVLPAKGAYSRKDTSVLLCTVRKSQFVKLKRIVYEEDPDAFVMVTETSEVLGLGFRAFKDSL”, the protein production was “failed”.

With “MAGFVPLRWPISRMSSAVPRYIVGIDLGTTHTVVSYADGGDPSRIEPLFLEQLVAPGQVAGRPLLPSVRYHPATGELAEADTALPWPVEETAPGCRPVIGEFARQLGSRSRGRLVASAKSWLCHTGVDRTADILPWGAPDEVPKVSPVEASASFLRHVRCAWNHRFPAHPLETQDVIVTIPASFDDAARALTVEAARRAGLANVRLLEEPQAACYDFLWTYRGRLAETLEGVNLLLVCDVGGGTTDFTLIRVDAGGSEPELERIAVGNHLMLGGDNIDLTLAHRLEPRLTGAERSLSATDLILLAEQCRRAKETLLAEQGPESVTVTLLGKGGGLIGGARSVELSRHEVLEVVLDGFFPRVGADAVPERRSGVVEFGLPYAADPAITRHAAAFLIRHRNDAGGAAPDALLLNGGVFHSPVIAGRMAEVVGSWCGRTPVMLRNPRPDQAVAFGAVAFGLSRRGLAVRRIGGGSARAYYLLVGDANERSRRGVCILPRGAAEGQEWTVERRNFLLSVGRPVRFHVFSSTVDSGHAPGDLAVLDEAGFGELPPLAVALQAQEQGDVEVRLAARLTAIGTLQLQCVAVGDPEQRWDLELQLRGGGPRPTASASLHPRAAEAQEHIGLIFGKKTRQFGPKAVKTLRNDLEKILGKREDWDTALCRELYAALLEGAPHRRRSADHERLWLSLAGYCLRPGFGAPLDDWRVGQVWNLYSQGLQFVNEAQNWSEWWIVWRRIAGGLRAEAQQRLFADVAGFIDPVRARRGNAEALAKKRAFEDMVRLAASLERLSAGDKTMLGGWLVQRLDKAPDSAELWWALGRVGARAPFHGSAHNLVAREVVEDWVELALQRDWKRQGFVAFAATLLARLTGDRERDLDATLRNRVAEKLVASSAPEIWLELVTEVRGLDASDEKRIFGEGLPPGLRLVDSAWGALEHHHHHH” the protein production was “failed”.

With “MPQIQSSHSNHFDFTIDTADRTKLLMSYLVVPTTANFNNVMHGGELLNLLDKVAYVCSTRYCAKGTVTLSVDGVTFKYPIPVGNLLTFLASINYVGNTSCEVGIKVLSEDIKTREITHTNSCYFTMVAVENGKPTPMPKYEPKTEVEIRRYEGALKRKEMRTRGYLKSGKHEGV” the protein production was “failed”.

In the case of “MTWSFTLGRLFGSELKVHVTFFLLIGWIGVSAYQMGGWPSAVENTAFVLALFACVVAHEYGHALTARRYGIRTPDITLLPIGGLARLDRMPEKPGQEIVVALAGPAVNVAIWAALTLVGVDTRFETLAAIDSAEPDFLGRLAMVNLFLAVFNLIPAFPMDGGRVLRAALSLTMDRVRATRIAAAAGQLVALLFGFAGLSGGNPVLVLIAVFVFIAANAEAQDVAMRAVTRRLLARDAMITRFEALGPTDTLATAAQAVLHTTQHEFPVLDGEGHLLGFVTRARLFAALAADHPRSDPAETVMDREIPQVPLASGLETVLDALYQGAPAVAVTSADGRMLGYVTRENVGELMVIQGR”, the protein production is reported as “failed”.

For “MRREKTMDTLIRSIMIKSKRKMDAKVAQFGLTTQQARVLGFLNDNAANEIIQKDLQRIFQTRGASITSLIQGLEKKQLISRKPSLRDGREKVVTLTKEGKDIVDEFNASFPREDDKAKKILSADEYKTFIELLSKIDDQTD”, the protein production was “failed”.

For “MDRRDYYVEYYEVLDRVLSDYVNQLREKREHWLKMGGHDVGVPLINLLFWQFTWHREEYDRLRKEGKSCGEALGSVKEILADKQVEEWERQEEEYKIYDHEWYEALAPYGGQLVIYIYNARQLVYLTPLIERLEEPVLLLSEYEIPDETELPDFVTAITLEFTKTVPLVNPFLKEWFPLIFQYANTFDILMRILQPKGLIFLEGCHYQQLLLATIGRDYGIPTLCIQQGWPSLMHTAFRRMPYRYYLMWGEGFRTLWEKHNPLPDFVPTGYMYQVEPRNETKKECVTFFLQGPFFLSDKRYLQEMIRLIGTVAAEFPARRFLVREHPEFRIGEEVRMEWEQIPNIEMVTDGKLAEVFARTRVGVAHYSSSLMEGVAHGAVPLVYDPTEGSRYSPDVEAEGLGMIAKTKEELTGGLSRILGNYEDFKQRIEKEQPLWFQATGEETLRNMVGFIKEKMPPVTLKEIYVVDTDTLTRERPVGVSGLLRCKNCEDFLEMCIDSCIDGLDELIAVYHDCTDRTPEILRQKAAQYPDKIRVFEYQPSVYPIDLDEEELEKAKLLPPDSIHTLAGYCNYALSKASYRYAVKIDADQVYFTDRLKHICDAYRSDKKVRFNVAECISYNLYRAYVDSFNRIEMRPFRWLERIALWTHASYASYLEKMIIRYKVPVSMSGINLFRKDREWMVGLGQEHPEPDSKEILPPFNGVRDTFFFEVSEDRIFRYMTETKLDGRHRGVEVMRCPNEILDVGFCWFHLRALMKEHEEGYRQSYRKHPERFIPLGTFVKLSYRNLQQRYKPFVAVRWAEPVFAYFFMTGKGRIPWKKLKEIE”, the protein production was “failed”.

With “MKLALFDLDHTLLNTDSDHSWGEFLVNEGLVDPVHHRQMNDKFYEDYKAGQLDPIAYNEFVFEFLTQNTPEVLTDLHALFMQKVIRPQMRPKGFDGIKKHQNLGHDIVGITATSDFITAPIFRAFGITEIIATNAEVQDGKYTGKVAGLPCYQKGKLARLDQWLAGRSVEESWAYSDSINDRFLLEYATHAIAVNPDDRLEKLAIDQGWTIEDWSI” the protein production was “failed”.

In the case of “MSCYSDSITPDSFSGIVFALEGVSRSIVLINGPSGCKYYHSAVSDNQTLRQYEFDPFNYSEKWYFGQPRVPCTYLDSDDYIYGSTDKLTEALEFLRDNAPFDLLCIVNSPGAALIGDDLRGIAGRIIKEKSVVIIETPDFSRDICTGYETAAAALLDSLPLNSAARSQPNTVNILGLSIFHKYFAGDILELRRLLELCGVTVNCFLCADCDIDTIRRIPEAALNIVIHPEYGMKTARCLKERYGTPFYLCDGPPIGFSATEKFIGGICTALGCDSSLFRRESERARARAYAYISQVNSLTGLPKGVHFAVEGTYSELYAYTSFLVRYFGMIPEALSVLNEGSDCCKERLQALLNGLALPQALDRDLTETDSELVFASGNTIAKLKLRRHMFSGIEISLPSLGYIDVIPKTHIGLQGALMLTEQVLNGLAF”, the protein production is reported as “failed”.

For “MEKIEDQFASLHIVRRSSEPKEPTYLLGIDTSKTVQADKGGLVAVLCSNGSIRIYDKETLHLLREFGGSPGLLSGVSFANSCDSVYSASTDGTVKCWDARGASEKPVQLFKGYPSCSFISFDVNCKDHVICAGAEKVDEDALLVFWDARFTSQDLSTRDPLGAYSETHSDDITQVRFHPSNPNLVVSGSTDGLVNVFDLSADKEEDALVATCNSVSSVSCIGWCGKDYKQIYCMTHDEGFCWWDLNHLDTDEPITCLNIQDVREITDVKDGHLDYLIGGLYHEKMDRLFVIGGTNTGKIHLLSCTSAGLTHVTSLHGGHAATVRSFCWNVSEDSLLTGGEDAQLLLWKPGAMEKTFTKKDSLKIASSVQQRVRVHSSDSYKKRKQQ”, the protein production was “failed”.

In the case of “MNAGHLKEAAALYAEIVALNPGWEHGTALYSLACCYEDLGELTSAEECYRRALSYEPESPTFIGGLASFLHLHGSQS”, the protein production is reported as “failed”.

For “MASEEGQVIACHTVETWNEQLQKANESKTLVVVDFTASWCGPCRFIAPFFADLAKKLPNVLFLKVDTDELKSVASDWAIQAMPTFMFLKEGKILDKVVGAKKDELQSTIAKHLA”, the protein production was “failed”.
